Measurements from patent US20220332804A1 (CSL INNOVATION, published 2022).
Numbering of substitutions follows the chain as printed.

Experiments:
Assay in all cases: SPR, KD relative to WT C2;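 note: biacore SPR at 37 °C, anti-C2 mAbs captured via immobilised goat anti-human IgG, C2 alanine or serine surface mutants as analytes, 1:1 model fitted, double-referenced sensograms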
[1] = target: T1, human C2 P704A (human, UniProt P06681 21-752)
T1 sequence: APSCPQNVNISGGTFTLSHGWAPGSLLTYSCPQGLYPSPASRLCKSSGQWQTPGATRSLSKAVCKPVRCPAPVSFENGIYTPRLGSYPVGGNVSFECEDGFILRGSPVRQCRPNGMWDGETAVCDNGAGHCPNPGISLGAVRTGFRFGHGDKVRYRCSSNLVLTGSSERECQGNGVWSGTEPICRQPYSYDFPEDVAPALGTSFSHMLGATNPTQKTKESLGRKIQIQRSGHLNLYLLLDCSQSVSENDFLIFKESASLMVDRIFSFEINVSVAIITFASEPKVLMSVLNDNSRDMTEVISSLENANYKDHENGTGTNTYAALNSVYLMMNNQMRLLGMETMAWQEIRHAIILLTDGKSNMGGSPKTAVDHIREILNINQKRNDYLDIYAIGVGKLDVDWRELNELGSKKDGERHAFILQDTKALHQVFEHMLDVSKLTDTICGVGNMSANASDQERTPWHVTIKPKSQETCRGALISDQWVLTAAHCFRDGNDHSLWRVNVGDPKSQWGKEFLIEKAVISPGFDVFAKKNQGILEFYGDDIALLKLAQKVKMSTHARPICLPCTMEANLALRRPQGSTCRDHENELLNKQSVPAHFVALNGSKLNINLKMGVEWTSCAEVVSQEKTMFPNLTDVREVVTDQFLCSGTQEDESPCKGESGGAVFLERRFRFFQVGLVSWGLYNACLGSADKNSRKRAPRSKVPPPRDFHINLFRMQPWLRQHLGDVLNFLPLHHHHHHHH

[2] = target: T2, human C2 L706A (human, UniProt P06681 21-752)
T2 sequence: T1 sequence with A684P, L686A

[3] = target: T3, human C2 K274A (human, UniProt P06681 21-752)
T3 sequence: T1 sequence with K254A, A684P

[4] = target: T4, human C2 A444S (human, UniProt P06681 21-752)
T4 sequence: T1 sequence with A424S, A684P

B1: RF16-226 (antibody, human IgG4 S228P, lambda)
heavy: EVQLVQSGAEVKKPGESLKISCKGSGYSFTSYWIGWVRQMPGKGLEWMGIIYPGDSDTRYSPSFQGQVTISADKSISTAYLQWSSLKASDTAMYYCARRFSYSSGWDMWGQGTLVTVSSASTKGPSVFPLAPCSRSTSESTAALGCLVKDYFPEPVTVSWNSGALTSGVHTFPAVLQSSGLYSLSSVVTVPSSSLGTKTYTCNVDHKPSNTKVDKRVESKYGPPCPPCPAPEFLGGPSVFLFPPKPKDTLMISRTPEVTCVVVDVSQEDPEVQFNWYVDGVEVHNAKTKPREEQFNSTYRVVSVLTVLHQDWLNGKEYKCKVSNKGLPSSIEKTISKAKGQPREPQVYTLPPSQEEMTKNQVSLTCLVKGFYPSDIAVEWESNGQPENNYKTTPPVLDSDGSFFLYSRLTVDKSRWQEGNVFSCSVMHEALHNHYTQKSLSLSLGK
light: SYELTQPPSVSVSPGQTARITCSGDALTSKYVAWYQQKSGLAPLLVIYEDTRRPSGIPAKFSGSSSGSVATLTISGAHGDDEADYYCYSTDASGHQRVFGGGTKLTVLSQPKAAPSVTLFPPSSEELQANKATLVCLISDFYPGAVTVAWKADGSPVKAGVETTKPSKQSNNKYAASSYLSLTPEQWKSHRSYSCQVTHEGSTVEKTVAPTECS
notes: pH-dependent anti-C2 antibody from a phage display library; also called WT
[1]
  Fold diff: 12 fold
[2]
  Fold diff: 23 fold
[3]
  Fold diff: 29 fold
[4]
  Fold diff: 2 fold
